Source: patent publication US6489125

How the values were obtained:
[1] = target: RyR2 channels from failing hearts; assay: co-immunoprecipitation, immunoblot densitometry (FIG. 4B)
[2] = target: RyR2 channels from failing hearts; assay: cell-based or functional assay
[3] = test system: type 2 ryanodine receptor (RyR2), native channel from cardiac sarcoplasmic reticulum

Row | decrease in the amount of FKBP12.6 bound (failing against normal hearts) [1] | open probability (Po) at 50 nM cis (cytosolic) Ca^2+ [2] | Substance | phosphorylation of RyR2 on addition of cAMP without exogenous PKA [3]
1 | 60% | 0.24 | FK-506 binding protein FKBP12.6, native from cardiac SR (from UniProt P68106 1-108) | 
2 |  |  | protein kinase A (PKA) catalytic subunit, endogenous in cardiac SR | Addition of phosphorylation buffer including cAMP without exogenous PKA also resulted in phosphorylation of RyR2 that was inhibited by PKI
